Laboratory results published in PMC10215190.

Biological target: recombinant PhaC (PHA synthase Class III) from Arthrospira platensis (Arthrospira platensis)
Experiment: SEC; Sephadex-G50 column, 100 mM sodium phosphate pH 7.4, 1 mL/min, A280; masses estimated from retention times of standards (alcohol dehydrogenase 150 kDa, BSA 66 kDa, ovalbumin 44 kDa); dimer and monomer peaks both seen

stoichiometry N: 2
Substance: recombinant PhaC (PHA synthase Class III) from Arthrospira platensis (enzyme)
